Residue numbers refer to the chain shown, from its start.
How the values were obtained:
[1] = molecular target: T1, TDP-43-MBP (full-length wild-type TDP-43) (UniProt Q13148 1-414); test: EMSA; Kd,app only in figure; much higher affinity than exon or repeat; EMSA: 1 nM RNA, 50 mM Tris-HCl pH 7.5, 100 mM KCl, 2 mM MgCl2, 100 mM beta-mercaptoethanol, 0.1 mg/ml BSA, 30 min, room temperature; TDP-43 0-4 (printed mM in Methods, 0-8 uM in legend); 6% native PAGE, Cy5 imaging; conditions: protein: recombinant; tags: MBP; Ni-NTA purified; label: 5' Cy3 on strand 1; 3' Cy5 on 18-mer; 18 bp duplex at 3' end of strand 1, 5' ssRNA overhang
[2] = molecular target: T1, TDP-43-MBP (full-length wild-type …); test: EMSA; Kd,app only in figure; much lower affinity than intron probe; EMSA: 1 nM RNA, 50 mM Tris-HCl pH 7.5, 100 mM KCl, 2 mM MgCl2, 100 mM beta-mercaptoethanol, 0.1 mg/ml BSA, 30 min, room temperature; TDP-43 0-4 (printed mM in Methods, 0-8 uM in legend); 6% native PAGE, Cy5 imaging; conditions: protein: recombinant, tags: MBP, Ni-NTA purified, label: 5' Cy3 on strand 1, 3' Cy5 on 18-mer
[3] = molecular target: T1, TDP-43-MBP (full-length wild-type …); test: EMSA; Kd,app only in figure; affinity similar to CE Ref; EMSA: 1 nM RNA, 50 mM Tris-HCl pH 7.5, 100 mM KCl, 2 mM MgCl2, 100 mM beta-mercaptoethanol, 0.1 mg/ml BSA, 30 min, room temperature; TDP-43 0-4 (printed mM in Methods, 0-8 uM in legend); 6% native PAGE, Cy5 imaging; conditions: protein: recombinant; tags: MBP; Ni-NTA purified; label: 5' Cy3 on strand 1; 3' Cy5 on 18-mer; 18 bp duplex at 3' end of strand 1, 5' ssRNA overhang 26 nt

T1 sequence (Q13148 whole entry): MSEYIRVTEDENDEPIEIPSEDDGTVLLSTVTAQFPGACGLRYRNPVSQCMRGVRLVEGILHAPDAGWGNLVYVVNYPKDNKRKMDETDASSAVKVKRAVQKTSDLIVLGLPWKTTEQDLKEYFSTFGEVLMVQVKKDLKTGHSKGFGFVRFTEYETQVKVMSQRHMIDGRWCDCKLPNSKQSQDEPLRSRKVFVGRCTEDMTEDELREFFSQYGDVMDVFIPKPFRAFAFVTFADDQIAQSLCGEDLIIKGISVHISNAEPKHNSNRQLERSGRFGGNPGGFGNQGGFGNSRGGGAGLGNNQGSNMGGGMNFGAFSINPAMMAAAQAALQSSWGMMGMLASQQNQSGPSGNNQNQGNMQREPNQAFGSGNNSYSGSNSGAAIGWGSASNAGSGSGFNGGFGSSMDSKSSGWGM

B1: Intron Ref (U), rs12608932 (mixed)
RNA 1: AAUGGAUGGUUGGAUAAAUUGAUGGGUGGAUGGAUGCCUCGCUGCCGUCGCCA
RNA 2: UGGCGACGGCAGCGAGGC
modifications: 5' biotin on 18-mer strand
Question: Does B1 bind [1]?
Answer: binds

B2: Repeat Ref ((GATG)4), rs56041637 (mixed)
RNA 1: UGGAUGGAUGGAUGGAUGGAGCCUCGCUGCCGUCGCCA
RNA 2: UGGCGACGGCAGCGAGGC
modifications: 5' biotin on 18-mer strand
Question: Does B2 bind ([2]; 18 bp duplex at 3' end of strand 1, 5' ssRNA overhang 20 nt)?
Answer: binds

B3: CE Ref (G), rs12973192 (mixed)
RNA 1: AAGGAUGGAUGGAGAGAUGGGUGAGUGCCUCGCUGCCGUCGCCA
RNA 2: UGGCGACGGCAGCGAGGC
modifications: 5' biotin on 18-mer strand
Question: Does B3 bind ([2]; 18 bp duplex at 3' end of strand 1, 5' ssRNA overhang 26 nt)?
Answer: binds

B4: CE Risk (C), rs12973192 (mixed)
RNA 1: B3 RNA 1 with G4C
RNA 2: UGGCGACGGCAGCGAGGC
modifications: 5' biotin on 18-mer strand
Question: Does B4 bind [3]?
Answer: binds

From article PMC8891019, “TDP-43 represses cryptic exon inclusion in the FTD–ALS gene UNC13A”
